Laboratory results taken from patent publication US11795460B2, “Compositions and methods for TTR gene editing and treating ATTR amyloidosis” (Intellia Therapeutics, Inc., priority 2017, dated 2023).
Strand notation (5' to 3'): a small letter for the sugar, then the base; units joined by * are phosphorothioate-linked, units joined directly phosphodiester-linked; [ ] holds rarer units or linkages, { } end groups; capitals alone tell only the bases. m = 2'-O-methyl; r = 2'-OH (RNA)

B1: G000491: TTR sgRNA modified sequence, Human, SEQ ID No. 98; guide sequence of CR003338 (nucleic acid)
guide: mA*mU*mA*rCrCrArGrUrCrCrArGrCrArArGrGrCrArGrGrUrUrUrUrArGrAmGmCmUmAmGmAmAmAmUmAmGmCrArArGrUrUrArArArArUrArArGrGrCrUrArGrUrCrCrGrUrUrArUrCrAmAmCmUmUmGmAmAmAmAmAmGmUmGmGmCmAmCmCmGmAmGmUmCmGmGmUmGmCmU*mU*mU*mU
B2: G000493: TTR sgRNA modified sequence, Human, SEQ ID No. 100; guide sequence of CR003368 (nucleic acid)
guide: mA*mA*mG*rUrGrCrCrUrUrCrCrArGrUrArArGrArUrUrGrUrUrUrUrArGrAmGmCmUmAmGmAmAmAmUmAmGmCrArArGrUrUrArArArArUrArArGrGrCrUrArGrUrCrCrGrUrUrArUrCrAmAmCmUmUmGmAmAmAmAmAmGmUmGmGmCmAmCmCmGmAmGmUmCmGmGmUmGmCmU*mU*mU*mU
B3: G000492: TTR sgRNA modified sequence, Human, SEQ ID No. 99; guide sequence of CR003342 (nucleic acid)
guide: mC*mU*mU*rCrUrCrUrArCrArCrCrCrArGrGrGrCrArCrGrUrUrUrUrArGrAmGmCmUmAmGmAmAmAmUmAmGmCrArArGrUrUrArArArArUrArArGrGrCrUrArGrUrCrCrGrUrUrArUrCrAmAmCmUmUmGmAmAmAmAmAmGmUmGmGmCmAmCmCmGmAmGmUmCmGmGmUmGmCmU*mU*mU*mU
B4: G000485: TTR sgRNA modified sequence, Human, SEQ ID No. 92; guide sequence of CR003336 (nucleic acid)
guide: mC*mC*mU*rCrCrUrCrUrGrCrCrUrUrGrCrUrGrGrArCrGrUrUrUrUrArGrAmGmCmUmAmGmAmAmAmUmAmGmCrArArGrUrUrArArArArUrArArGrGrCrUrArGrUrCrCrGrUrUrArUrCrAmAmCmUmUmGmAmAmAmAmAmGmUmGmGmCmAmCmCmGmAmGmUmCmGmGmUmGmCmU*mU*mU*mU
B5: G000501: TTR sgRNA modified sequence, Human, SEQ ID No. 108; guide sequence of CR005300 (nucleic acid)
guide: mU*mC*mA*rCrArGrArArArCrArCrUrCrArCrCrGrUrArGrUrUrUrUrArGrAmGmCmUmAmGmAmAmAmUmAmGmCrArArGrUrUrArArArArUrArArGrGrCrUrArGrUrCrCrGrUrUrArUrCrAmAmCmUmUmGmAmAmAmAmAmGmUmGmGmCmAmCmCmGmAmGmUmCmGmGmUmGmCmU*mU*mU*mU
B6: G000495: TTR sgRNA modified sequence, Human, SEQ ID No. 102; guide sequence of CR003343 (nucleic acid)
guide: mC*mA*mG*rArGrGrArCrArCrUrUrGrGrArUrUrCrArCrGrUrUrUrUrArGrAmGmCmUmAmGmAmAmAmUmAmGmCrArArGrUrUrArArArArUrArArGrGrCrUrArGrUrCrCrGrUrUrArUrCrAmAmCmUmUmGmAmAmAmAmAmGmUmGmGmCmAmCmCmGmAmGmUmCmGmGmUmGmCmU*mU*mU*mU
B7: G000570: TTR sgRNA modified sequence, Human, SEQ ID No. 111; guide sequence of CR003347 (nucleic acid)
guide: mC*mA*mU*rUrGrArUrGrGrCrArGrGrArCrUrGrCrCrUrGrUrUrUrUrArGrAmGmCmUmAmGmAmAmAmUmAmGmCrArArGrUrUrArArArArUrArArGrGrCrUrArGrUrCrCrGrUrUrArUrCrAmAmCmUmUmGmAmAmAmAmAmGmUmGmGmCmAmCmCmGmAmGmUmCmGmGmUmGmCmU*mU*mU*mU
B8: G000567: TTR sgRNA modified sequence, Human, SEQ ID No. 109; guide sequence of CR003352 (nucleic acid)
guide: mG*mA*mA*rArGrGrCrUrGrCrUrGrArUrGrArCrArCrCrGrUrUrUrUrArGrAmGmCmUmAmGmAmAmAmUmAmGmCrArArGrUrUrArArArArUrArArGrGrCrUrArGrUrCrCrGrUrUrArUrCrAmAmCmUmUmGmAmAmAmAmAmGmUmGmGmCmAmCmCmGmAmGmUmCmGmGmUmGmCmU*mU*mU*mU
B9: G000498: TTR sgRNA modified sequence, Human, SEQ ID No. 105; guide sequence of CR003359 (nucleic acid)
guide: mA*mG*mU*rGrArGrUrCrUrGrGrArGrArGrCrUrGrCrArGrUrUrUrUrArGrAmGmCmUmAmGmAmAmAmUmAmGmCrArArGrUrUrArArArArUrArArGrGrCrUrArGrUrCrCrGrUrUrArUrCrAmAmCmUmUmGmAmAmAmAmAmGmUmGmGmCmAmCmCmGmAmGmUmCmGmGmUmGmCmU*mU*mU*mU
B10: G000572: TTR sgRNA modified sequence, Human, SEQ ID No. 113; guide sequence of CR003385 (nucleic acid)
guide: mC*mC*mC*rCrUrArCrUrCrCrUrArUrUrCrCrArCrCrArGrUrUrUrUrArGrAmGmCmUmAmGmAmAmAmUmAmGmCrArArGrUrUrArArArArUrArArGrGrCrUrArGrUrCrCrGrUrUrArUrCrAmAmCmUmUmGmAmAmAmAmAmGmUmGmGmCmAmCmCmGmAmGmUmCmGmGmUmGmCmU*mU*mU*mU
B11: G000568: TTR sgRNA modified sequence, Human, SEQ ID No. 110; guide sequence of CR003391 (nucleic acid)
guide: mG*mG*mC*rUrGrUrCrGrUrCrArCrCrArArUrCrCrCrArGrUrUrUrUrArGrAmGmCmUmAmGmAmAmAmUmAmGmCrArArGrUrUrArArArArUrArArGrGrCrUrArGrUrCrCrGrUrUrArUrCrAmAmCmUmUmGmAmAmAmAmAmGmUmGmGmCmAmCmCmGmAmGmUmCmGmGmUmGmCmU*mU*mU*mU
B12: G000490: TTR sgRNA modified sequence, Human, SEQ ID No. 97; guide sequence of CR003366 (nucleic acid)
guide: mA*mA*mA*rUrArGrArCrArCrCrArArArUrCrUrUrArCrGrUrUrUrUrArGrAmGmCmUmAmGmAmAmAmUmAmGmCrArArGrUrUrArArArArUrArArGrGrCrUrArGrUrCrCrGrUrUrArUrCrAmAmCmUmUmGmAmAmAmAmAmGmUmGmGmCmAmCmCmGmAmGmUmCmGmGmUmGmCmU*mU*mU*mU
B13: G000500: TTR sgRNA modified sequence, Human, SEQ ID No. 107; guide sequence of CR003337 (nucleic acid)
guide: mC*mC*mA*rGrUrCrCrArGrCrArArGrGrCrArGrArGrGrGrUrUrUrUrArGrAmGmCmUmAmGmAmAmAmUmAmGmCrArArGrUrUrArArArArUrArArGrGrCrUrArGrUrCrCrGrUrUrArUrCrAmAmCmUmUmGmAmAmAmAmAmGmUmGmGmCmAmCmCmGmAmGmUmCmGmGmUmGmCmU*mU*mU*mU
B14: G000484: TTR sgRNA modified sequence, Human, SEQ ID No. 91; guide sequence of CR003367 (nucleic acid)
guide: mA*mG*mA*rCrArCrCrArArArUrCrUrUrArCrUrGrGrArGrUrUrUrUrArGrAmGmCmUmAmGmAmAmAmUmAmGmCrArArGrUrUrArArArArUrArArGrGrCrUrArGrUrCrCrGrUrUrArUrCrAmAmCmUmUmGmAmAmAmAmAmGmUmGmGmCmAmCmCmGmAmGmUmCmGmGmUmGmCmU*mU*mU*mU
B15: G000497: TTR sgRNA modified sequence, Human, SEQ ID No. 104; guide sequence of CR003335 (nucleic acid)
guide: mC*mU*mG*rCrUrCrCrUrCrCrUrCrUrGrCrCrUrUrGrCrGrUrUrUrUrArGrAmGmCmUmAmGmAmAmAmUmAmGmCrArArGrUrUrArArArArUrArArGrGrCrUrArGrUrCrCrGrUrUrArUrCrAmAmCmUmUmGmAmAmAmAmAmGmUmGmGmCmAmCmCmGmAmGmUmCmGmGmUmGmCmU*mU*mU*mU

Assays:
TTR [1] = assay: TTR editing in primary cyno hepatocytes treated with LNP formulated Spy Cas9 mRNA (SEQ ID NO: 2) and sgRNAs (Tables 17, 18); type: cell-based, cynomolgus monkey; settings: Table 17, LNP formulated Spy Cas9 mRNA (SEQ ID NO: 2) and sgRNA, 12.5 ng mRNA, 3.9 nM sgRNA, 72 hours
Outline: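 Primary cynomolgus hepatocytes, 24 h after plating, dosed with LNPs (N:P about 4.5 or 6, mRNA:gRNA 1:1 by weight) pre-incubated 5 min at 37° C. in medium with 6% cyno serum, in an 8-point 2-fold dose response. Editing = indel/substitution reads over total reads by amplicon MiSeq sequencing.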

TTR [2] = assay: TTR editing in primary human hepatocytes treated with LNP formulated Spy Cas9 mRNA (SEQ ID NO: 2) and sgRNAs (Table 16); type: cell-based; settings: LNP formulated Spy Cas9 mRNA (SEQ ID NO: 2) and sgRNA, 72 hours
Description: Primary liver hepatocytes. Primary human liver hepatocytes (PHH) and primary cynomolgus liver hepatocytes (PCH) (Gibco) were cultured per the manufacturer's protocol (Invitrogen, protocol 11.28.2012). In brief, the cells were thawed and resuspended in hepatocyte thawing medium with supplements (Gibco, Cat. CM7000) followed by centrifugation at 100 g for 10 minutes for human and 80 g for 4 minutes for cyno. The supernatant was discarded and the pelleted cells resuspended in hepatocyte plating medium plus supplement pack (Invitrogen, Cat. A1217601 and CM3000). Cells were counted and plated on Bio-coat collagen I coated 96-well plates (ThermoFisher, Cat. 877272) at a density of 33,000 cells/well for human or 60,000 cells/well for cyno (or 65,000 cells/well when assaying effects on TTR protein, described further below). Plated cells were allowed to settle and adhere for 6 or 24 hours in a tissue culture incubator at 37° C. and 5% CO2 atmosphere. After incubation cells were checked for monolayer formation and media was replaced with hepatocyte culture medium with serum-free supplement pack (Invitrogen, Cat. A1217601 and CM4000).
In general, the lipid nanoparticle components were dissolved in 100% ethanol with the lipid component of various molar ratios. The RNA cargos were dissolved in 25 mM citrate, 100 mM NaCl, pH 5.0, resulting in a concentration of RNA cargo of approximately 0.45 mg/mL. The LNPs were formulated with a lipid amine to RNA phosphate (N:P) molar ratio of about 4.5 or about 6, with the ratio of mRNA to gRNA at 1:1 by weight.
The LNPs were formed by microfluidic mixing of the lipid and RNA solutions using a Precision Nanosystems NanoAssemblr™ Benchtop Instrument, according to the manufacturer's protocol. A 2:1 ratio of aqueous to organic solvent was maintained during mixing using differential flow rates. After mixing, the LNPs were collected, diluted in water (approximately 1:1 v/v), held for 1 hour at room temperature, and further diluted with water (approximately 1:1 v/v) before final buffer exchange. The final buffer exchange into 50 mM Tris, 45 mM NaCl, 5% (w/v) sucrose, pH 7.5 (TSS) was completed with PD-10 desalting columns (GE). If required, formulations were concentrated by centrifugation with Amicon 100 kDa centrifugal filters (Millipore). The resulting mixture was then filtered using a 0.2 μm sterile filter. The final LNP was stored at −80° C. until further use.
To quantitatively determine the efficiency of editing at the target location in the genome, sequencing was utilized to identify the presence of insertions and deletions introduced by gene editing.
Primers were designed around the target site within the gene of interest (e.g. TTR), and the genomic area of interest was amplified.
Additional PCR was performed per the manufacturer's protocols (Illumina) to add chemistry for sequencing. The amplicons were sequenced on an Illumina MiSeq instrument. The reads were aligned to a reference genome (e.g., the human reference genome (hg38), the cynomologus reference genome (mf5), the rat reference genome (rn6), or the mouse reference genome (mm10)) after eliminating those having low quality scores. The resulting files containing the reads were mapped to the reference genome (BAM files), where reads that overlapped the target region of interest were selected and the number of wild type reads versus the number of reads which contain an insertion, substitution, or deletion was calculated.
The editing percentage (e.g., the “editing efficiency” or “percent editing” or “indel frequency”) is defined as the total number of sequence reads with insertions/deletions (“indels”) or substitutions over the total number of sequence reads, including wild type.
Lipid nanoparticle formulations of modified sgRNAs targeting human TTR and the cyno matched sgRNA sequences were tested on primary human hepatocytes and primary cyno hepatocytes in a dose response curve. Primary human and cyno hepatocytes were plated as described in Example 1. […]

| Molecule | 12.5 ng mRNA, 3.9 nM sgRNA Avg % Edit (TTR [1]) [%] | 12.5 ng mRNA, 3.9 nM sgRNA Avg % Edit (TTR [2]) [%] |
| --- | --- | --- |
| B1 | 6.37 | 31.60 |
| B2 | 7.63 | 7.33 |
| B3 | 0.70 | 15.87 |
| B4 | 1.43 | 14.23 |
| B5 | 1.37 | 32.30 |
| B6 | 0.73 | 23.97 |
| B7 | 17.30 | 88.30 |
| B8 | 0.10 | 48.95 |
| B9 | 37.90 | 24.43 |
| B10 | 30.60 | 55.45 |
| B11 | 9.25 | 54.60 |
| B12 | 15.23 | 10.53 |
| B13 | 10.47 | 23.57 |
| B14 | 0.10 | 16.67 |
| B15 | 0.23 | 15.10 |
